# Test results: the nanobody polyreactivity screen of Harvey et al. (2022)
# Assay: yeast display, Sf9 membrane polyspecificity reagent, FACS + sequencing; frameworks hold sequencing errors
# Summary of the method: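 Nanobodies from a synthetic yeast display library (Saccharomyces cerevisiae BJ5465), induced 36–48 hours with galactose, were stained 1 hour at 4 °C with 10% biotinylated, detergent-solubilized Sf9 membrane reagent, enriched on streptavidin microbeads, then FACS-sorted. Anti-HA (expression) and streptavidin (reagent binding) fluorescence set low and high (top ~1%) gates. Polyreactivity labels come from the gate of origin. Genes were colony-PCR amplified, MiSeq 2 × 250 sequenced and filtered by CDR length.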
row,Sequence,polyreactivity (PSR sort gate)
1,QVQLVESGGGLVQAGGSLRLSCAASGITFRTNAMGWYRQAPGKERDLVAAIRTGYSTYYADSVKGRFTISRDNAKNPVYLQMNSLKPEDTAVYYCNAVRYSPVFRRKYDYWGQGTQVTVSS,high polyreactivity
2,QDQLVESGGGLVQAGGSLRLSCAASGRTFHLYAMGWYRPAPGKERELVAAIRWTGVSTYYADSVKGRFTISRDNAKNTVYLEMNSLKPEDTAVYYCATKQRYRVSRDWSSYCYGYWGQGTQVTVSS,high polyreactivity
3,QVQLVESGGGLVQEGGSLRLICAASGRTFYKNAMGWYRPAPAKERELVAAISSRGGRTTYADSLKGRYTISRDNAKNTVYLQMNSLKTEDTAVYYCAADWEYDYWGQGTHVTVSS,high polyreactivity
4,QVQLVESGGGLVQAGGSLRLSCAASGFTFDSYAMGWYRQAPGKERELVAAITSDGSTYYADSVKGRFTISRDNAKNSVYLQMNSLKPEDTAVYYCAADGISLYATAYDFWGQGTQVTVSS,low polyreactivity
5,QVQLVESGGGLVQAGGSLRLSCAASGSIFLNYAMGWYRQAPGNERELVAGISNGGSTNYADSVKGRFTISRDNAKNTVYLQMNSLKPEDTAVYYCARPAYKSRGKRFDYLGQGTQVTVSS,low polyreactivity
6,QVPLVESGVGLVQAGGSLRISCAASGFTFSRYAMGWYRQAPGKERELVAAISRTGGRTYYADSVKGRFTITRDNAKNTVYLQMNSLKPEDTADYYCARVPVHSHLRQTYAMEYWGQGTQVTVSS,high polyreactivity
7,QVQLVESGGGLVQAGGSLRLSCAASGRIFRYYAMGWYIQAPGKERELVAAISGSGGSTYYADSVKGRFTISRDNAKNTVYLQMNSLKPEDTAVYYCNARYRIPSGEGDHWGQGTQVTVSS,low polyreactivity
8,QVQLVESGRGLVQAGGSLRLSCASSGTILERYVMGWYRQAPGKERELVAAITISRGSTYYADSVKGRFTISRDNAKNTVYLEMTRLKPEDTAVYYCAARNRYWGQGTKVTVSS,high polyreactivity
9,QVQLVESGGGLVHAGGSLRLSCAASGSIFKPYVMGWYRQAPGKERELVAAITTSGVRTYYADSVKGRFTISRDNAKNTVYLQMNSLKPEDTAVYYCATRRWSWPQFRTGDYWGQGTQVTVSS,high polyreactivity
10,QVQLVESGGGLVQAGGSLRLSCAASGRIKGKNAMGWYRQAPGKERELVAAISSTGSTYYADSVKGRFSISRDNAKNTVYLQMNSLKPEDTAVYYCAATVEWWPGGWFDYWGQGTQVTVSS,high polyreactivity
11,QVQLVESGGGLVQAGGSLRLSCAASGFTIQFYTMGWYRQAPGKERELVAAISYNGDSTYYADSVKGRFTISRDNAKNTVYLQMNSLKPEDTAVYYCNTDLGTIYYYGYDYWGQGTQVTVSS,high polyreactivity
12,QVQLEESGGGLMQAGGNLRLSCAASGYISTHYDMDWYRQAPGRERELVARIDDGAITNYADSVKGRFTISRDNATNTVYLQMNSLKPEDTAVYYCAVYSGDDYYHDYWGQGTQVTVSS,low polyreactivity
13,QVQRVESRGVLVQAGGTLRLSCAASGISFGRNTMGWYRQAPLKERELVATIRSGTNYADSVKGRFTISRDNAKNTVDLQMNSLKPDDTAVDYCAVRYFGGRRSYYWGQGSQVTVSS,high polyreactivity
14,QVQLVESGGGLVQAGGILRLSCAASGFIFDSYAMGWYRQAPGKERELVAAINWNGGRTYYADSVKGRFTISRDNAKNTVYLQMNRLKPEDTAVYYCAKDTDNWDVGGYVYDYDYWGQGTQVTVSS,high polyreactivity
15,QFQLVESGGGLVQAGGSLRLSCAATGSIFRGNAMGWYRQAPGKERELVAGINRAGSTKYADSVKGRFTISRDNAKNTVYLQMNSLKPEDTAVYYCAAVRYERGLWSDYWGQGTQVTVSS,high polyreactivity
16,QVQLVESGGGLVQAGGSLRLSCAASGRTFSVNAMGWYREAPGKEREFVAGISYSGNTYYADSVKGRVTISRDNAKKTAYLQMNSLKPEDTAVYYCAARRGYNDGYWGQGTQVTVSS,high polyreactivity
17,QVQLVESGGGLVQAGGSLRLSCAASGLIFTWNAMGWYRQATGKERELVAAISTGGSTSYADSVKGRFTISRDNAKNTVYLQMNSLKPEDTAVYYCARDSSIWSHGSWYDYWGQGTQVTVSS,low polyreactivity
18,QVQLVESGGGLVQAGGSLRLSCAASGFTFRSYTMGWYRQAPGKERELVASIRYGGGSTYYADSVKGRFTISRDNAKNTVYLQMNSLKPEDTAVYYCSAESAWTSPYDYWGQGTQVTVSS,high polyreactivity
19,QVQLVESGGGLVQAGGSLRLSCAASGFIFYRNTMGWYRQAPGKEREFVAAIRWRGGSTYYADSVKGRFTISRDNAKNTVYLQMNSLKPEDTAVYYCNALGKPTWYATTYDYWGQGTQVTVSS,high polyreactivity
20,QVQLQESGGGLVQAGGSLRPSCAASGSISDGVPMGWYRQAPGEERELVATTVLGATTNYADSVKGRFTISRGNAKYTVYLQMNSLKPEETAVYYCAAPLRYDKGFSYWGQGTQVTVSS,low polyreactivity
21,QVQLVESGGGLVQAGGSLRLSCAASGFIFSEYAMGWYRQAPGKDMELVAAISSGGNTYYADSVKGRFTISRDNAKNTVYLQMNSLKTEDTAVYYCNADNYAFYTQRPLDGSATYDYWGQGTQVTVSS,low polyreactivity
22,QVQLVESGGGLVQAGGSLRLSCAASGRTFWPYAMGWYRQAPGKERELVAAINWGGGSTYYADSVKGRFTISRDNAKNTVYLQMNSLKPEDTAVYYCAADVGRNKMDYWGQGTQVTVSS,low polyreactivity

row,Sequence,polyreactivity (PSR sort gate)
1,QVQLVESGGGLVQAGGSLRLSCAASGLTFRSYTMGWYRQAPGTERELVAAISSGGSTYYADSVKGRFTISRDNAKNTVYLQMNSLKPEDTAVYYCAAPRGHGKYYSWGQGTQVTVSS,high polyreactivity
2,PVQLVESGGGLVHAGGSLRLSCAASGLTFRYYAMGLYRQAPGKERELVASISWSGASTYYADSVKGRFTISRDNAKNTVYLQMNSLKPEDTEVYYCNAGYYGSYDYWGQGTQVTVSS,high polyreactivity
3,QVQHVESGGGLVQAGGSLRLSCAASGFTFTAYAMGWYRQAPGKERELVAAISYRGGRTNYAYSVKGRFTISRDNAKNTVYLQMNSLKPEDTAVYYCAARPRISTREMDYWGQGTKVTVSS,high polyreactivity
4,QVQHVESGGGLVQAGGSLRLICAASGITFHYYAMGWYRQAPGKDRELVAAISSGGRTNYADSVKGRFTISRDNAKNTVYLQMNCLKPEDTAVYYCAGVYFGGYTATVYYWGQGTQVTVSS,high polyreactivity
5,QVQLVESGGGLVQAGGSLRLSCAASGSIFKWYAMGWYRQAPGKERELVASITWSGGSTYYADSVKGRFTISRDNAKNTVYLQMNSLKPEDTAVYYCNALSWVRGDYWGQGTQVTVSS,low polyreactivity
6,QDQLVESGGGLVQAGGSLRLSFAASGNIFRYYAMGWYRQAPGKERELVAAISRSGGNTYYADSVKGRFTISRDNAKNTVYLQMNSLKTEDTAVYYCAVVLSTYSYADYDYWGQGTQVTLSS,high polyreactivity
7,QVQLVESGGGLVQAGGSLRLSCAASGRILYPYAMGWYRQAPGKERESVAAITFRGGNTYYADSVKGRFTISRDQAKNTVYLQMNSLKPEDTAVYYCAAPQRWTYAYDYWGQGTQVTVSS,high polyreactivity
8,QVQLVESGGGLVQAGGSLRLSCAASGSTFRRYAMGWYRQAPGKERELVAAITGSGGRTYYADSVKGRFTISRDNAKNTVYLQMNSLIPVDTAVYYCAKEGTFTKGVRLFDYWGQGTQVTVSS,high polyreactivity
9,QVQLVESGGGLVQPGGSLRLSCAASGRIFGWYARGWYRPAPGKERELVAAISRGGTRTNYADSVKGRFTISRDNAKNTVYLQMNSLKPEETAVYYCAARRYSRDFDYWGQGTQVTVSS,high polyreactivity
10,QVQLVESGGGLVQAGGSLRLSCAASGRTFAYNTMGWYRQAPGKERELVAAITWSGGGTYYADSVKGRFTISRDNAKNTVYLQMNRLKPEDTAVYFCAVEYASPRARYRYYYWGQGTQVSVSS,low polyreactivity
11,QVQLVESGGGLVQAGGSLRLSCAASGRIFGENAMGWYRQAPGKERELVAAITWSGTSTYYADSVKGRFTISRDNAKNTVYLQMNSLKPEDTAVDYCAASATLFSSRGKRYYWGQGTQVTVSS,low polyreactivity
12,QVQLVESGGGLVQAGGSLRLSCAASGFIFGWNAMGWYREAPGKERELVAALTRTGSTYYADSVKGRFTISRDNAKNTVYLQMNSLKPEDTAVYYCAASYGSRSTRTEGYWGQGTQVTVSS,low polyreactivity
13,QVQLVESGGGLVQAGGSLRLSCAASGSTFPYYAMGWYRQAPGKERELVAAISRRGTSTYYADSVKGRFTISRDNAKNTVYLQMNSLTPEDTAVYYCAAVGGAFPNRYYWGQGTQVTVSS,high polyreactivity
14,QVQLVESGGGLVQAGGSLRLICAASGVTFWSDAMGWYRQAPGKEREFVAAITTSAGRTNYADSVKGRFTISRDNAQNTVYLKMNSLKPEDTAVYYCAARSAYTGLGSGFDYWGQGTQVSVSS,low polyreactivity
15,QVQLQESVGGQVQAGVSLRLICAASCTISQEDWMGWYRQAPAKEREFVAAIGLGSNTNYADSLKGRFTISRDNAKNTVDLQMNSLKPEDTAVYYCAVSVWQYSDHVYRGQGTQVTVSS,low polyreactivity
16,QVQLVESGGGLVQAGGSLRLSCDASGRIFRENAMGWYRQAPGKERELVAAINRSGSRTYYADSVKGRFTISRDNAKNTVYLQMNSLKPEDTAVYYCATASSIRYDYWGQGTQVTVSS,high polyreactivity
17,QVQLVESGGGLVQAGGSLRLSCAASGRIFGYNALGWYRQAPGKERELVAAINSDGSKNYADSVKGRFTISRDNAKNTVYFQMNSLNPEDTALYYCNKELYPVGDYEYWGEGTQVTVSS,low polyreactivity
18,QVQLVESGGGLVQAGGSLRLSCAASGIIFYRNTMGWYRQAPGKERELVAAITSGGTTYADSVKGRFTISRDNAKNTVYLQMNSLKPEDTAVYYCATDYWYRGFEYEYWGQGTQVTVSS,high polyreactivity
19,QVQLVESGGGLVQAGGSLRLSCAASGSTFTFYAMGWYRQAPGKQRELVATISSSGVSTSYADSVKGRFTISRDNAKNTVDLEMNSLKPEDTAVYYCNAGYRRRFIFDYWGQGTQVTVSS,low polyreactivity
20,QVQLVESGGGLVQAGGSLRLSCAASGYIFSYYTMGWYRQAPGKERELVAAISYSGGSTDYADSVKGRFTISRDNAKNTVYLQMNSLKPEDTAVYYCNADYSFWAKPYWEYGYDYWGQGTQVTVSS,low polyreactivity
21,QVQLVESGGGLFQAGGSLRLSCAASGSIFFENAMGWYRQAPGKEREFVAASTWSAGGRTDYADSVKGRFTISRDNAKTTVYLQMNSLKPEDTAVYYCARYPTNILYIPVRGYTDMDYWGQGTQVTVSW,low polyreactivity
